The data set can be described thus: soluble on expression in E. coli; label from the status in PepcDB or PDB records.
As for “MTLSRVSEMALSPDGKTAVYAVSFPDVKTNKATRELFTVNLDGSGRKQITDTESNEYAPAWMADGKRIAFMSNEGGSMQLWVMNADGTERRQLSNIEGGITGFLFSPDEKQVLFTKDIKFGKRTKDIYPDLDKATGRIITDLMYKHWDEWVETIPHPFIANATDGMITTGKDIMEGEPYEAPMKPWSGIEDFSWSPDGQNIAYASRKKTGMAYSLSTNSDIYIYNLASGRTHNISEGMMGYDTYPKFSPDGKSIAWISMERDGYESDLKRLFVADLATGKRTHVNPTFDYNVDMIQWAPDSKGIYFLACKEAETNLWEITLKTGKIRQITQGQHDYADFSVRNDVMLAKRHSFELPDDLYRVNLKNGAAQAVTAENKVILDRLTPITCEKRWMKTTDGGNMLTWVVLPPNFDKNKKYPAILYCQGGPQNTVSQFWSFRWNLRLMAEQGYIVIAPNRHGVPGFGQKWNEQISGDYGGQNMRDYLTAVDEMKKEPYVDGDRIGAVGASYGGFSVYWLAGHHDKRFAAFIAHAGIFNLEMQYATTEEMWFANWDIGGPFWEKDNVVAQRTYATSPHKFVQNWDTPILMIHGELDFRILASQAMAAFDAAQLRGVPSEMLIYPDENHWVLQPQNALLFHRTFFGWLDRWLKK”, the “soluble on expression in E. coli” value was “not soluble”.

On to “MTLTEQPQRIAILHSLYLEYFLALGTPPIASAGASTGDAMKALGEWETLKPYAGTAKIIDLGSARDLNLEAILGANPDVIVTFKGQGNLDKIYEQLEQIAPVILVDFSAPWQEQILACAEIVNKEADAQKLIKEIEDSVQSAKEKLSRLEHHHHHH”, for which the “soluble on expression in E. coli” value was “not soluble”.

Consider “MTLVGECLSPHVTMAQRDHIRLEWRMPYRVLERTRQVAWTCFCRASVYELCEGGGQAFLRRTVQLDGKPTAHETSPCSISEARVIWTALLSGRAR”, for which the “soluble on expression in E. coli” value is recorded as “not soluble”.

For the sequence “MTMRFSVLASGSTGNAFYIETDRQRLLVDAGLSGKQLEELFAEIGRHPKQLDALLVTHEHSDHIKGLGVLARKYRLPVYANEKTWRAMEQAVGDIPPEQKFVFPLGAVRTFGDVDVESFGVSHDAAEPMFYVFHYEGKKLALLTDTGYVSERIKKTIENADVFVFESNHDVGMLRMGRYPWSVKRRILSDVGHISNEEAGLALADVIGDRTKQIYLAHLSQDNNMKELARMTVTQVLEQKGLAVGARFRLYDTDPRRATALAYV”, the “soluble on expression in E. coli” value is given as “not soluble”.

Consider “MTNKREDVRNIAIIAHVDHGKTTLVDELLKQSGIFRENEHVDERAMDSNDIERERGITILAKNTAVDYKGTRINILDTPGHADFGGEVERIMKMVDGVVLVVDAYEGTMPQTRFVLKKALEQNLKPVVVVNKIDKPSARPEGVVDEVLDLFIELEANDEQLEFPVVYASAVNGTASLDPEKQDDNLQSLYETIIDYVPAPIDNSDEPLQFQVALLDYNDYVGRIGIGRVFRGKMRVGDNVSLIKLDGTVKNFRVTKIFGYFGLKRLEIEEAQAGDLIAVSGMEDINVGETVTPHDHQEALPVLRIDEPTLEMTFKVNNSPFAGREGDFVTARQIQERLNQQLETDVSLKVSNTDSPDTWVVAGRGELHLSILIENMRREGYELQVSKPQVIIKEIDGVMCEPFERVQCEVPQENAGAVIESLGARKGEMVDMTTTDNGLTRLIFNVPARGMIGYTTEFMSMTRGYGIINHTFEEFRPRIKAQIGGRRNGALISMDQGSASTYAILGLEDRGVNFMEPGTEVYEGMIVGEHNRENDLTVNITKTKHQTNVRSATKDQTQTMNRPRILTLEEALQFINDDELVVVTPESIRLRKKILNKNVREKEAKRIKQMMQENE”, for which the “soluble on expression in E. coli” value is on record as “not soluble”.

Consider “MTPAELKRLYHIIKVQLEYGLDELLPDHQLTKAPLLMRKSLFWIKNQHPEKPLGERLRLALQELGPVWIKFGQMMSTRRDLFPPHIADPLALLQDQVAPFDGELAKQQMEKALGGPLENWFTEFDIKPLEHHHHHH”, for which the “soluble on expression in E. coli” value is “not soluble”.

In the case of “MTPDELARLTGYSRQTINKWVRKEGWTTSPKPGVQGGKARLVHVNEQVREYIRNAERPEGQGEAPALSGDAPLEVLLVTLAKEMTPVEQKQFTSLLLREGIIGLLQRLGIRDSK”, the “soluble on expression in E. coli” value is “not soluble”.

In the case of “MTPDWFAVVDATWPAADSRTDGTLTLREGRGGGKRVSAASASGAVSEPQIEAAEAAMRQMGQPPLFQLRPGDEGLDAALAGRGYSIVDPVNIYACPVSQLTDLPMPRVTVFALWEPLAIMRELWAEGGIGPGRLAVMDRVKGPKTGLLMRHQDKPGGVAFVAIHDGVAMLHALEIPPHQRRKGLGKWAMRGAAFWALDNGAHTLSVICTKANEGANALYRSLGMQLVGEYHYRLLQEERQTA”, the “soluble on expression in E. coli” value is reported as “not soluble”.

In the case of “MTPRSLVRIVGVVVATTLALVSAPAGGRAAHADPCSDIAVVFARGTHQASGLGDVGEAFVDSLTSQVGGRSIGVYAVNYPASDDYRASASNGSDDASAHIQRTVASCPNTRIVLGGYSQGATVIDLSTSAMPPAVADHVAAVALFGEPSSGFSSMLWGGGSLPTIGPLYSSKTINLCAPDDPICTGGGNIMAHVSYVQSGMTSQAATFAANRLDHAG”, the “soluble on expression in E. coli” value is given as “not soluble”.

With “MTQELGPLARTLSMPYYDDALPAHDQFHAKRVRDIALRLAGDCNGSVDRDVLAASAWLHDIGRPRERAGEIDDHDDWATAEAAQLLAAEGVKPDRIGRIKHCIQAHSIRTSSPEPRTLEAKLLFDADKLDAAGARGLVRLACIVGERSGRTGEKYAVIDDTSATDLGTSNSPDIELLRDWAQERLDTLYTQPGRRLGQTRREFMDEFFTHFAGEIGASGEWLEHHHHHH”, the “soluble on expression in E. coli” value is listed as “not soluble”.

As for “MTQNINQLAVNTIRTLSIDAINAANSGHPGLPMGAAPMAYALWANHLNHNPNHPKWFNRDRFVLSAGHGSSLLYSLLHLAGYDVSIDDLKNFRKLNSKTPGHPEFGHTSGVEATTGPLGQGIANAVGMAMAEAHLAAKFNKDGHSIIDHNTYALVGDGDLMEGVAYEAMSMEGVAYEAMSMAGHMKLGKLIVLYDSNEISLDGELNIAFSEDMQKRVESAHWQYVRVEDGNDVDAITKAIQLAKDNTDQPTLIEIRTVIGYGSPKVAGTNKAHGNPLGLEEATATKQVYGWHYEEDFFVPEEVTAHFNELKQKGIEKERGWNEQFNLYRESNPALADELEKAIIGEVLIEAKDILSFDSEKTISTRVASGEAINHYVKSIPSIFGGSADLSHSTMTDIKGEAVYAVESYAGRNIYFGVREHAMGAAANGLALHGGVKPFVSTFFVFNDYLRPSIRLAALQKLPVTYVFTHDSIAVGEDGPTHEPIEHLAALRAIPGLTVIRPSDANETASAWAYALQQTEGPVVLVLSRQNLPVFHETKANIENLSKGAYVLTQTNENPDVILIATGSEVSLAASAKAKLEEDNVSVRIVAMPSWELFDRQSKEYKESVLPSSVTKRVSLEMGVSLGWERYVGQEGNILSIETFGASGTGAEVMNLFGFTTENVVQITKNVLNS”, the “soluble on expression in E. coli” value is “not soluble”.

With “MTQTFADQKRKTVETAEFTEDGRYKRKVRSFVLRTGRLSEFQRNMMNDNWGTLGLDYQTEPFDFAKIYGNDNPVVLEIGFGMGKSLVDMAFANPDKNYLGIEVHTPGVGACIAYAVEKGVTNLRVICHDATEILRDSIADGALGGLQLFFPDPWHKAKHHKRRIVQPHFVTQVIQKLGENGFIHMATDWENYAEQMLEVLSANTDLVNTSKNGDYIPRPDFRPLTKFEARGYKLGHGVWDLYFVKK”, the “soluble on expression in E. coli” value is recorded as “not soluble”.

In the case of “MTQVYDGFVHLGFSNRNGRTISHKKYQEGNSRVSADNSDANGVPYYFLINMGGGFVEGEQYQVTIDVNKDAHALVTTQTPTYVYKCEKGQLTQQNTSITLEENSYLEYMADEVIPYLKSRYFQTSRIDMDKSAHLIYSDGVTAGWSHEDLPFQYHYFRNLTQIYQDNELVYSDQTLLEPEKQDMFKLGYFEGWRNYNSLVMVSPNIDEAFVKALQKHLEGLNLESDFAISSLDISGLVLRILGKTAEDNRRIIYSCADYFRQEIHGLTPLNLRKNDMRRLEHHHHHH”, the “soluble on expression in E. coli” value is given as “soluble”.

Consider “MTRACNLYVFKNKYVSFNLLDSPNSNPKLLKISLPFNFMDEFEGLLKAVGSAPWYKLIGMVPKLQGDRVVVEMEIDRSKHLQALGTTHGGAIASVLDSAIGLNVNREVVKMGKTAVTAQLNIHYIRPVTEGKIVGVGMPMHIGSKVTVGYGEVRNEEGELVAAGTATFYIIDRRFRDLEHHHHHH”, for which the “soluble on expression in E. coli” value is “not soluble”.

Turning to “MTRLPDIKKEVRFNAPIEKVWEAVSTSEGLAFWFMENDLKAETGHHFHLQSPFGPSPCQVTDVERPIKLSFTWDTDGWSVTFHLKEEENGTIFTIVHSGWKQGDTKVEKAGAESAVVHERMDRGWHDLVNERLRQIVELEHHHHHH”, the “soluble on expression in E. coli” value is recorded as “soluble”.

As for “MTRPNDEGDVSSLAYKYETIADSLRQDIKSGKYTPGELMPDQNKLAETFDTTRITIHKAIQLLIIEGMVYSKRGAGTFVRKDFGLTERRQETLVDKPLGTTQTNAGKKVTSKVLELQARLPTKREAEQLLIDEMDPVYVIRRTRYVDGKVWAYEHTIMPTSIVTLTKQVLEGSVYGYLEQHSGKKIAGSHRIISAARVTADDVAAMGATLNDPVLVINQISYMDDGQPFEVSESHFPYETSTVVADVQIH”, the “soluble on expression in E. coli” value is given as “not soluble”.

In the case of “MTRQFLEFEQPIEELNQKIEALRMVGSDNEVNLSEEIARLEAKCSELTENIFSRLEPWQIAQMARHPLRPQTTDYIERIFTDFQELHGDRSYSSAPAIIGGMARLNGEPVMVLGHQKGKRTKEKVYRNFGMARPEEYRKALRLMRMAEKFKMPVVTFIDTAGAYPGIGAEERNQSEAIARNLFAMSRIKTPIVCIVTGEAGSGGALAIGVGDKIIMLQFSIYSVISPEGCASILWKDASKASEAARAMGITADRIFENELVDMVVPEPLGGAHRDVDEMASRLKRLLTSELQALKKVPLDQLIELRYQKFMAMGACD”, the “soluble on expression in E. coli” value is “not soluble”.

Consider “MTRQMILAVGQQGPIARAETREQVVGRLLDMLTNAASRGVNFIVFPELALTTFFPRWHFTDEAELDSFYETEMPGPVVRPLFETAAELGIGFNLGYAELVVEGGVKRRFNTSILVDKSGKIVGKYRKIHLPGHKEYEAYRPFQHLEKRYFEPGDLGFPVYDVDAAKMGMFICNDRRWPETWRVMGLKGAEIICGGYNTPTHNPPVPQHDHLTSFHHLLSMQAGSYQNGAWSAAAGKVGMEEGCMLLGHSCIVAPTGEIVALTTTLEDEVITAALDLDRCRELREHIFNFKAHRQPQHYGLICEF”, for which the “soluble on expression in E. coli” value is “soluble”.

As for “MTRTNYQKKRMTCPVETEDITYRRKKIKGRRQAILAQFEPELVHHELIGDSCTCPDCHGTLTEIGSVVQRQELVFIPAQLKRINHVQHAYKCQTCSDNSLSDKIIKAPVPKAPLAHSLGSASIIAHTVHQKFTLKVPNYRQEEDWNKLGLSISRKEIANWHIKSSQYYFEPLYDLLRDILLSQEVIHADETSYRVLESDTQLTYYWTFLSGKHEKKGITLYHHDKRRSGLVTQEVLGDYSGYVHCDMHGAYRQLEHAKLVGCWAHVRRKFFEATPKQADKTSLGRKGLVYCDKLFALEAEWCELPPQERLVKRKEILTPLMTTFFDWCREQVVLSGSKLGLAIAYSLKHERTFRTVLEDGHIVLSNNMAERAIKSLVMGRKNWLFSQSFEGAKAAAIIMSLLETAKRHGLNSEKYISYLLDRLPNEETLAKREVLEAYLPWAKKVQTNCQ”, the “soluble on expression in E. coli” value was “not soluble”.

Take “MTSGSLQFTVLRAVNPATDAQRESMLREPGFGKYHTDHMVSIDYAEGRGWHNARVIPYGPIELDPSAIVLHYAQEVFEGLKAYRWADGSIVSFRADANAARLRSSARRLAIPELPDAVFIESLRQLIAVDKAWVPGAGGEEALYLRPFIFATEPGLGVRPATQYRYLLIASPAGAYFKGGIAPVSVWVSTEYVRACPGGTGAAKFGGNYAASLLAQAEAAENGCDQVVWLDAVERRYIEEMGGMNIFFVLGSGGSARLVTPELSGSLLPGITRDSLLQLAIDAGFAVEERRIDIDEWQKKAAAGEITEVFACGTAAVITPVARVRHGASEFRIADGQPGEVTMALRDTLTGIQRGTFADTHGWMARLG”: the “soluble on expression in E. coli” value is reported as “soluble”.

These data come from the DeepSol protein solubility set.
